Source: patent US6623741

Each substance was assayed against viral gp41 of HIV-1 (on HIV-1 virions and HIV-1 infected cells) (HIV-1) (UniProt P04578) (assay: cell-based or functional assay).

Question: Which Cell Fusion (IC90) does the source give for DP107 (peptide) here?
Answer: 1 µM

Question: What about the HIV-infectivity (IC90) of the same substance?
Answer: 1 µM

Question: Which results are given for DP178 (peptide)?
Answer: Cell Fusion (IC90): 0.001 µM; HIV-infectivity (IC90): 0.08 µM

Question: Which results are given for “M41 (maltose binding protein fused to the extracellular domain of HIV-1 gp41, residues 540-686) (from UniProt P03377 540-686)”?
Answer: Cell Fusion (IC90): > 50 µM; HIV-infectivity (IC90): > 0.016 µM

Question: For “M41-P (M41 with Ile to Pro mutation at position 578) (from UniProt P03377 540-686)”, which Cell Fusion (IC90) is on record?
Answer: 0.083 µM

Question: What about the HIV-infectivity (IC90) of the same substance?
Answer: 0.066 µM

Question: What does the source list for “M41-PΔ178 (M41Δ178 with the Ile to Pro mutation at position 578) (from UniProt P03377 540-642)”?
Answer: Cell Fusion (IC90): > 50 µM; HIV-infectivity (IC90): > 8 µM

The substances below were run against MF-IV (MF5.1): E. coli maltose binding protein fused to RSV F protein residues 142-302 (E. coli; respiratory syncytial virus (strain A2)) (UniProt P03420) (assay: competitive binding assay (B50) on the MF5.1 fusion protein (DP107 target)).

Question: With T1091 (peptide) as the substance, how does the binding affinity read?
Answer: 19 nM

Each substance was assayed against MF-IV (MF5.1): E. coli maltose binding protein fused to RSV F protein residues 142-302 (E. coli; respiratory syncytial virus (strain A2)) (UniProt P03420) (assay: competitive binding assay (B50) on the MF5.1 fusion protein; reference T112).

Question: With T1091 (peptide) as the substance, how does the fold lower binding affinity than T112 read?
Answer: 10 fold
